Here are results for one molecule from article PMC5760527 (2018).

One may read the Kd as the free concentration of one partner at which half of the binding sites on the other are occupied at equilibrium, for simple one-to-one binding. Low readings indicate a tighter complex, high ones a looser complex.

In the assay the target is Cx43 EL1 peptide extracellular loop 1 (EL1) (Mus musculus, UniProt P23242). The experiment in a line: SPR.
Cx43 EL1 peptide extracellular loop 1 (EL1), sequence (P23242 45-76): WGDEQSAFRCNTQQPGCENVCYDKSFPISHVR

QPGCEN [P4 peptide (Cx43 mimetic)] came in with a Kd of 20 µM.
